The subject of series [1] is TALEN L (L538), canonical RVDs (synthetic (Xanthomonas TALE scaffold)). The series is described as follows: cell_activity. Conditions: K562, L/R, cold shock.
Series [2] concerns TALEN L 102002 (synthetic (Xanthomonas TALE scaffold)). The series is described as follows: cell_activity. Conditions: K562, partner TALEN R.
For series [3], the system named is TALEN L 102006 (synthetic (Xanthomonas TALE scaffold)). The experiment in a line: cell_activity. Conditions: K562, partner TALEN R.
Series [4] deals with TALEN L 102010 (synthetic (Xanthomonas TALE scaffold)). The experiment in a line: cell_activity. To be noted: K562, partner TALEN R.
The test system of series [5] is TALEN L 102035 (synthetic (Xanthomonas TALE scaffold)). The experiment in a line: cell_activity. Conditions: K562, partner TALEN R.
In series [6] the test system is TALEN L 102038 (synthetic (Xanthomonas TALE scaffold)). The series is described as follows: cell_activity. To be noted: K562, partner TALEN R.
In series [7] the test system is TALEN L 102041 (synthetic (Xanthomonas TALE scaffold)). The series is described as follows: cell_activity. Conditions: K562, partner TALEN R.
Series [8] has as its system TALEN L 102043 (synthetic (Xanthomonas TALE scaffold)). The experiment in a line: cell_activity. Conditions: K562, partner TALEN R.
The test system of series [9] is TALEN L 102046 (synthetic (Xanthomonas TALE scaffold)). The experiment in a line: cell_activity. Conditions: K562, partner TALEN R; 30.1 in Table 4.
The subject of series [10] is TALEN L 102049 (synthetic (Xanthomonas TALE scaffold)). The experiment in a line: cell_activity. To be noted: K562, partner TALEN R.
For series [11], the system named is TALEN L 102052 (synthetic (Xanthomonas TALE scaffold)). The series is described as follows: cell_activity. Conditions: K562, partner TALEN R.
For series [12], the system named is TALEN L 102056 (synthetic (Xanthomonas TALE scaffold)). The series is described as follows: cell_activity. Conditions: K562, partner TALEN R.
Series [13] has as its system TALEN L 102066 (synthetic (Xanthomonas TALE scaffold)). The series is described as follows: cell_activity. Conditions: K562, partner TALEN R.
In series [14] the test system is TALEN L 102072 (synthetic (Xanthomonas TALE scaffold)). The series is described as follows: cell_activity. Conditions: K562, partner TALEN R.
Series [15] has as its system TALEN L 102075 (synthetic (Xanthomonas TALE scaffold)). The experiment in a line: cell_activity. Conditions: K562, partner TALEN R.
The subject of series [16] is TALEN L 102076 (synthetic (Xanthomonas TALE scaffold)). The experiment in a line: cell_activity. To be noted: K562, partner TALEN R.
The subject of series [17] is TALEN L 102077 (synthetic (Xanthomonas TALE scaffold)). The series is described as follows: cell_activity. To be noted: K562, partner TALEN R.
The test system of series [18] is TALEN L 102078 (synthetic (Xanthomonas TALE scaffold)). The series is described as follows: cell_activity. To be noted: K562, partner TALEN R.
Series [19] deals with TALEN L 102083 (synthetic (Xanthomonas TALE scaffold)). The experiment in a line: cell_activity. To be noted: K562, partner TALEN R.
Series [20] relates to TALEN L 102085 (synthetic (Xanthomonas TALE scaffold)). The series is described as follows: cell_activity. To be noted: K562, partner TALEN R.
The subject of series [21] is TALEN L 102202 (synthetic (Xanthomonas TALE scaffold)). The series is described as follows: cell_activity. To be noted: K562, partner TALEN R.
For series [22], the system named is TALEN L 102203 (synthetic (Xanthomonas TALE scaffold)). The experiment in a line: cell_activity. To be noted: K562, partner TALEN R.
Series [23] relates to TALEN L 102204 (synthetic (Xanthomonas TALE scaffold)). The experiment in a line: cell_activity. Conditions: K562, partner TALEN R.
Series [24] has as its system TALEN L 102205 (synthetic (Xanthomonas TALE scaffold)). The experiment in a line: cell_activity. Conditions: K562, partner TALEN R.
In series [25] the test system is TALEN L 102206 (synthetic (Xanthomonas TALE scaffold)). The series is described as follows: cell_activity. To be noted: K562, partner TALEN R.
The test system of series [26] is TALEN L 102208 (synthetic (Xanthomonas TALE scaffold)). The series is described as follows: cell_activity. Conditions: K562, partner TALEN R.
Series [27] deals with TALEN L 102209 (synthetic (Xanthomonas TALE scaffold)). The experiment in a line: cell_activity. To be noted: K562, partner TALEN R.
For series [28], the system named is TALEN L 102210 (synthetic (Xanthomonas TALE scaffold)). The series is described as follows: cell_activity. Conditions: K562, partner TALEN R.
Series [29] deals with TALEN L 102211 (synthetic (Xanthomonas TALE scaffold)). The series is described as follows: cell_activity. To be noted: K562, partner TALEN R.
Series [30] has as its system TALEN L 102213 (synthetic (Xanthomonas TALE scaffold)). The series is described as follows: cell_activity. Conditions: K562, partner TALEN R.
Series [31] deals with TALEN L 102214 (synthetic (Xanthomonas TALE scaffold)). The experiment in a line: cell_activity. To be noted: K562, partner TALEN R.
Series [32] has as its system TALEN L 102215 (synthetic (Xanthomonas TALE scaffold)). The series is described as follows: cell_activity. To be noted: K562, partner TALEN R.
The subject of series [33] is TALEN L 102216 (synthetic (Xanthomonas TALE scaffold)). The series is described as follows: cell_activity. To be noted: K562, partner TALEN R.
Series [34] concerns TALEN L 102217 (synthetic (Xanthomonas TALE scaffold)). The experiment in a line: cell_activity. To be noted: K562, partner TALEN R.
In series [35] the test system is TALEN L 102219 (synthetic (Xanthomonas TALE scaffold)). The experiment in a line: cell_activity. Conditions: K562, partner TALEN R.
Series [36] relates to TALEN L 102224 (synthetic (Xanthomonas TALE scaffold)). The series is described as follows: cell_activity. Conditions: K562, partner TALEN R.
Series [37] concerns TALEN L*, non-canonical RVDs (synthetic (Xanthomonas TALE scaffold)). The series is described as follows: cell_activity. Conditions: K562, L*/R*, cold shock; 58.66 with R.
Series [38] has as its system TALE tetramer library CCTG (repeats 5-8 varied) (synthetic (Xanthomonas TALE scaffold)). The series is described as follows: ELISA. Conditions: mean of 90 library clones, SE 0.03. A general note: ELISA stands for enzyme-linked immunosorbent assay.

As for “TTCATTACACCTGCAGCT (double strand) [TALEN L binding site (CCR5)]”, the activity stood at 50.6 % indels in [1]; 20.3 % indels in [2]; 1.3 % indels in series [3]; 17.3 % indels in series [4]; 16.8 % indels in [5]; 17.2 % indels in series [6]. Also, the activity was determined as 4.2 % indels in series [7]; 22.4 % indels in [8]; 33.6 % indels in [9]; 25.9 % indels in series [10]; 30.1 % indels in series [11]; 30.9 % indels in [12]. Moreover, the activity in series [13] stood at 22.9 % indels; in series [14], 24.5 % indels; in [15] it was 10.7 % indels; in series [16] it was 21.6 % indels; in series [17] it was 23.8 % indels; in series [18], 25.1 % indels. The activity came out at 27 % indels in series [19]; 26.1 % indels in series [20]; 32.4 % indels in series [21]; 16.6 % indels in series [22]; 36.6 % indels in series [23]; 40.2 % indels in [24]. Further, the activity in series [25] is 23.5 % indels; in series [26] it was 27.9 % indels; in series [27], 28.4 % indels; in series [28] it was 33.6 % indels; in series [29] it was 23.2 % indels; in series [30], 34.1 % indels. The activity in series [31] was determined as 31.2 % indels; in series [32], 29 % indels; in series [33] it was 35.4 % indels; in [34], 34.5 % indels; in series [35], 37.8 % indels; in series [36], 38.7 % indels. In addition, the activity in series [37] was 65.2 % indels.

“CATAGTCCCCTTGACCCTGTCCTCGGTGTAGTTTTCACAGTCAGTCCACACGTC (double strand) [CCTG target]” had a binding signal (fraction of canonical control) in [38] of 0.2.

Values taken from patent US20150307561.
